Target: untagged wild type APOBEC3G (A3G) (human), Q9HC16
Assay: cross-linking; cleared lysate of transfected 293T cells treated with BM(PEO)3 (cysteine-reactive, 18 Å linker), 20°C, 1 h, quenched with DTT; SDS-PAGE and immunoblot for A3G; ~80 kD species; no RNase A, or RNase A after the crosslinking
Details: remark: other sources report otherwise

B1: untagged wild type APOBEC3G (A3G), Q9HC16 1-384 (natural protein)
chain: MKPHFRNTVERMYRDTFSYNFYNRPILSRRNTVWLCYEVKTKGPSRPPLDAKIFRGQVYSELKYHPEMRFFHWFSKWRKLHRDQEYEVTWYISWSPCTKCTRDMATFLAEDPKVTLTIFVARLYYFWDPDYQEALRSLCQKRDGPRATMKIMNYDEFQHCWSKFVYSQRELFEPWNNLPKYYILLHIMLGEILRHSMDPPTFTFNFNNEPWVRGRHETYLCYEVERMHNDTWVLLNQRRGFLCNQAPHKHGFLEGRHAELCFLDVIPFWKLDLDQDYRVTCFTSWSPCFSCAQEMAKFISKNKHVSLCIFTARIYDDQGRCQEGLRTLAEAGAKISIMTYSEFKHCWDTFVDHQGCPFQPWDGLDEHSQDLSGRLRAILQNQEN
  stoichiometry N: 2
